Data: patent publication US5622933A, “Multiple branch peptide constructions for use against HIV” (priority 1993, dated 1997)
Values joined by “and” are separate entries in the source; they are usually repeats but may differ in a detail not shown here. Identical values can stand only once.

What was measured:
HIV-1 (LAI) = experiment: Fusion between chronically infected CEM cells and MT-2 cells; assay type: cell-based; conditions: separate tests
HIV-1 (NDK) = experiment: as above; assay type: cell-based; conditions: separate tests
HIV-2 (ROD) = experiment: as above; assay type: cell-based; conditions: separate tests
[1] = test system: Peripheral blood lymphocytes (PBL); experiment: PBL antigen and mitogen induced proliferation ([3H]thymidine incorporation); assay type: cell-based, human; conditions: MBPCs 5×10^-6 M
Procedure: Peripheral blood lymphocytes (PBL) from 3 healthy HIV sero-negative donors were isolated from heparinized blood by the Ficoll-Hypaque technique. The culture medium was RPMI 1640 supplemented with 1% glutamine, 1% antibiotics and 10% heat inactivated fetal calf serum. Cells (10^5) were incubated in the presence of MBPCs (5×10^-6 M) with or without antigen (candidine, PPD) or mitogen (PHA). Antigen or mitogen treated cells were pulsed for eight hours with […] of [3H] thymidine. Then cells were harvested and [3H] thymidine incorporation in DNA was counted. […]

HIV = experiment: Infection of HT-29 human colon cells through the GalCer receptor; assay type: cell-based
Procedure: The activity of MBPCs was evaluated on this alternative infection route as follows: HT-29 cells (5×10^5 cells) were incubated with MBPCs (5×10^-6 M) for 45 minutes and subsequently exposed to 100 TCID50 of HIV-1 (LAI), HIV-1 (NDK) or HIV-2 (ROD) for 1 hour at 37° C. The residual inoculum was inactivated by three successive trypsinations and infection was assessed by: i) direct measurement of HIV-1 p24^gag (for HIV-1 isolates) and RT activity (for HIV-1 and HIV-2 isolates) in the culture supernatants; ii) co-cultivation with human PBLs. The cells were treated with the MBPCs as follows: 1- none; 2- [GPGRAF]8 -MLC; 3- [GPGRAF]8 -MLCD; 4- [GPG(R)DAF]8 -MLC; 5- [GPGRAF]16 -MLC; 6- [[…]]4 -MLC; and 7- [[…]]4 -MLC, with all amino acids in L form unless noted otherwise. The results shown in FIG. 5A, which correspond to infection with HIV-1 (NDK), are representative of three separate experiments and the MBPC used is indicated by the number on the x-axis. The concentration of p24^gag (pg/ml) was measured during the co-culture experiment with PBLs (+++, >10 ng/ml 10 days post-infection; ++, >1 ng/ml 13 days post-infection; +, >1 ng/ml 16 days post-infection; -, no detectable p24^gag 1 month post-infection). Similar results were obtained with HIV-1 (LAI) and HIV-2 (ROD).

GalCer receptor = experiment: Binding of gp120 to GalCer (HPTLC binding assay)
Procedure: In another experiment with the same MBPCs, the effect of MBPCs on the binding of gp120 to GalCer was analyzed using a high performance thin layer chromatography (HPTLC) binding assay. MBPCs (10^-4 M) were preincubated with GalCer for 1 hour at room temperature. After thorough washing, the HPTLC plates were incubated with HIV-1 recombinant gp120 (2.5 ug/ml) followed by rabbit anti-gp120 and ^125 I-goat anti-rabbit IgG. The plates were washed in PBS and exposed to Amersham Hyperfilm MP for 8 hours. As shown in FIG. 5B treatment of HT-29 cells with active MBPCs protected the cells from infection by HIV-1 (NDK isolate). This antiviral effect was correlated with its ability to block the binding of gp120 to GalCer.

C57/BL6 black mice = experiment: Immunogenicity in mice (serum ELISA for anti-MBPC3 antibody); assay type: in vivo, mouse
Procedure: The injection route was intraperitoneal. The blood samples were collected by sub-orbital eye punction. The blood samples were left for 1 hour at 37° C., then overnight at 4° C., and the supernatants (serum samples) thus obtained were separated from the pellets. Sera were tested by ELISA, looking for specific anti-MBPC3 antibody.
[…] After saturation with 400 μL of casein (5 g/100 ml), different serum dilutions were added for 2 hours at 37° C. The controls were sera from non-immunized rabbits and mice. After rinsing (5×), 50 μl of 1:5000 of peroxidase-labeled swine anti-rabbit IgG or anti-mouse IgG (Dakopatts, Copenhagen, Denmark) were added for 1 hour at 37° C. After further rinsing (5×), 100 μl of ortho-phenylenediamine were added for 30 min in the dark at room temperature. The reaction was stopped by adding 50 μl of 4N sulfuric acid, and optical density (OD) ratios were determined at 492/620 nm.

CEM or C8166 cells = conditions: concentrations of 10^-7 to 10^-4 M; cultured continuously (15 days)
Procedure: An MTT assay, a colorimetric cell viability assay using 3-[4,5-Dimethylthiazol-2-yl] 2,5-diphenyltetrazolium bromide, was used to assess the effect of MBPCs on cell viability. CEM or C8166 cells (5×10^4) were cultured continuously (15 days) in the presence of various concentrations of MBPCs in the wells of 96-well microtiter plates in 200 μl final volume of RPMI 1640 medium supplemented with 5% fetal calf serum, 1% glutamine, 1% streptomycin-penicillin (available from Gibco of Irvine, Scotland) in a humidified atmosphere with 5% CO2. Every 3 to 4 days, an MTT assay was performed on 100 μl of cells suspension and MBPC were added to cell culture and the volume completed to 200 μl.

(GPGRAF)8 -(K)4 -(K)2 -K-βA-OH [MBPC.3]
block of fusion (HIV-1 (LAI)): able to block the fusion | block of fusion (HIV-1 (NDK)): able to block the fusion | block of fusion (HIV-2 (ROD)): able to block the fusion | [3H] Thymidine Incorporation ([1]; Donor 1, Cand1): 87000 cpm | [3H] Thymidine Incorporation ([1]; Donor 1, Cand2): 100000 cpm | [3H] Thymidine Incorporation ([1]; Donor 1, PPD1): 1300 cpm | [3H] Thymidine Incorporation ([1]; Donor 1, PPD2): 3100 cpm | [3H] Thymidine Incorporation ([1]; Donor 2, Cand1): 17000 cpm | [3H] Thymidine Incorporation ([1]; Donor 2, Cand2): 11000 cpm | [3H] Thymidine Incorporation ([1]; Donor 2, PHA1): 87000 cpm | [3H] Thymidine Incorporation ([1]; Donor 2, PHA2): 95000 cpm | [3H] Thymidine Incorporation ([1]; Donor 2, PPD1): 24000 cpm | [3H] Thymidine Incorporation ([1]; Donor 2, PPD2): 27000 cpm | [3H] Thymidine Incorporation ([1]; Donor 3, Cand1): 3200 cpm | [3H] Thymidine Incorporation ([1]; Donor 3, Cand2): 1200 cpm | [3H] Thymidine Incorporation ([1]; Donor 3, PHA1): 162000 cpm | [3H] Thymidine Incorporation ([1]; Donor 3, PHA2): 154000 cpm | [3H] Thymidine Incorporation ([1]; Donor 3, PPD1): 3900 cpm | [3H] Thymidine Incorporation ([1]; Donor 3, PPD2): 3100 cpm | block of the infectivity of HIV on human colon cells (HIV): completely block | binding to / activity on the Galactosyl Ceramide receptor (GalCer receptor): bind to the second receptor | titers of anti-GPGRAF antibodies (C57/BL6 black mice; mice injected): did not produce significant titers | optical density (OD) ratio 492/620 nm (×10^3) (C57/BL6 black mice; plate 1, mouse serum 10^-2, coat 0.5 μg MBPC.3/ml): 382 and 381 | optical density (OD) ratio 492/620 nm (×10^3) (C57/BL6 black mice; plate 1, mouse serum 10^-2, coat 1 μg MBPC.3/ml): 444 and 419 | optical density (OD) ratio 492/620 nm (×10^3) (C57/BL6 black mice; plate 1, mouse serum 10^-2, coat 5 μg MBPC.3/ml): 1045 and 933 | optical density (OD) ratio 492/620 nm (×10^3) (C57/BL6 black mice; plate 1, mouse serum 10^-2, coat 10 μg MBPC.3/ml): 1162 and 1199 | optical density (OD) ratio 492/620 nm (×10^3) (C57/BL6 black mice; plate 1, mouse serum 10^-3, coat 0.5 μg MBPC.3/ml): 128 and 135 | optical density (OD) ratio 492/620 nm (×10^3) (C57/BL6 black mice; plate 1, mouse serum 10^-3, coat 1 μg MBPC.3/ml): 126 and 111 | optical density (OD) ratio 492/620 nm (×10^3) (C57/BL6 black mice; plate 1, mouse serum 10^-3, coat 5 μg MBPC.3/ml): 285 and 236 | optical density (OD) ratio 492/620 nm (×10^3) (C57/BL6 black mice; plate 1, mouse serum 10^-3, coat 10 μg MBPC.3/ml): 339 and 291 | optical density (OD) ratio 492/620 nm (×10^3) (C57/BL6 black mice; plate 1, mouse serum 10^-4, coat 0.5 μg MBPC.3/ml): 56 and 38 | optical density (OD) ratio 492/620 nm (×10^3) (C57/BL6 black mice; plate 1, mouse serum 10^-4, coat 1 μg MBPC.3/ml): 50 and 51 | optical density (OD) ratio 492/620 nm (×10^3) (C57/BL6 black mice; plate 1, mouse serum 10^-4, coat 5 μg MBPC.3/ml): 121 and 132 | optical density (OD) ratio 492/620 nm (×10^3) (C57/BL6 black mice; plate 1, mouse serum 10^-4, coat 10 μg MBPC.3/ml): 172 and 138 | optical density (OD) ratio 492/620 nm (×10^3) (C57/BL6 black mice; plate 2, mouse serum 10^-2, coat 1 μg MBPC.3/ml): 381 and 429 | optical density (OD) ratio 492/620 nm (×10^3) (C57/BL6 black mice; plate 2, mouse serum 10^-2, coat 5 μg MBPC.3/ml): 1514 and 1344 | optical density (OD) ratio 492/620 nm (×10^3) (C57/BL6 black mice; plate 2, mouse serum 10^-2, coat 10 μg MBPC.3/ml): 1540 and 1457 | optical density (OD) ratio 492/620 nm (×10^3) (C57/BL6 black mice; plate 2, mouse serum 10^-3, coat 0.5 μg MBPC.3/ml): 47 and 82 | optical density (OD) ratio 492/620 nm (×10^3) (C57/BL6 black mice; plate 2, mouse serum 10^-3, coat 1 μg MBPC.3/ml): 54 and 65 | optical density (OD) ratio 492/620 nm (×10^3) (C57/BL6 black mice; plate 2, mouse serum 10^-3, coat 5 μg MBPC.3/ml): 263 and 273 | optical density (OD) ratio 492/620 nm (×10^3) (C57/BL6 black mice; plate 2, mouse serum 10^-3, coat 10 μg MBPC.3/ml): 334 and 291 | optical density (OD) ratio 492/620 nm (×10^3) (C57/BL6 black mice; plate 2, mouse serum 10^-4, coat 1 μg MBPC.3/ml): 15 and 17 | optical density (OD) ratio 492/620 nm (×10^3) (C57/BL6 black mice; plate 2, mouse serum 10^-4, coat 5 μg MBPC.3/ml): 88 and 97 | optical density (OD) ratio 492/620 nm (×10^3) (C57/BL6 black mice; plate 2, mouse serum 10^-4, coat 10 μg MBPC.3/ml): 132 and 188 | optical density (OD) ratio 492/620 nm (×10^3) (C57/BL6 black mice; plate 3, mouse serum 10^-2, coat 0.5 μg MBPC.3/ml): 204 and 198 | optical density (OD) ratio 492/620 nm (×10^3) (C57/BL6 black mice; plate 3, mouse serum 10^-2, coat 1 μg MBPC.3/ml): 241 and 200 | optical density (OD) ratio 492/620 nm (×10^3) (C57/BL6 black mice; plate 3, mouse serum 10^-2, coat 5 μg MBPC.3/ml): 636 and 630 | optical density (OD) ratio 492/620 nm (×10^3) (C57/BL6 black mice; plate 3, mouse serum 10^-2, coat 10 μg MBPC.3/ml): 639 and 664 | optical density (OD) ratio 492/620 nm (×10^3) (C57/BL6 black mice; plate 3, mouse serum 10^-3, coat 0.5 μg MBPC.3/ml): 48 and 49 | optical density (OD) ratio 492/620 nm (×10^3) (C57/BL6 black mice; plate 3, mouse serum 10^-3, coat 1 μg MBPC.3/ml): 50 and 53 | optical density (OD) ratio 492/620 nm (×10^3) (C57/BL6 black mice; plate 3, mouse serum 10^-3, coat 5 μg MBPC.3/ml): 159 and 163 | optical density (OD) ratio 492/620 nm (×10^3) (C57/BL6 black mice; plate 3, mouse serum 10^-3, coat 10 μg MBPC.3/ml): 172 and 168 | optical density (OD) ratio 492/620 nm (×10^3) (C57/BL6 black mice; plate 3, mouse serum 10^-4, coat 0.5 μg MBPC.3/ml): 22 and 21 | optical density (OD) ratio 492/620 nm (×10^3) (C57/BL6 black mice; plate 3, mouse serum 10^-4, coat 1 μg MBPC.3/ml): 22 | optical density (OD) ratio 492/620 nm (×10^3) (C57/BL6 black mice; plate 3, mouse serum 10^-4, coat 5 μg MBPC.3/ml): 83 and 84 | optical density (OD) ratio 492/620 nm (×10^3) (C57/BL6 black mice; plate 3, mouse serum 10^-4, coat 10 μg MBPC.3/ml): 85 and 84 | optical density (OD) ratio 492/620 nm (×10^3) (C57/BL6 black mice; plate 4, mouse serum 10^-2, coat 0.5 μg MBPC.3/ml): 495 and 468 | optical density (OD) ratio 492/620 nm (×10^3) (C57/BL6 black mice; plate 4, mouse serum 10^-2, coat 1 μg MBPC.3/ml): 553 and 439 | optical density (OD) ratio 492/620 nm (×10^3) (C57/BL6 black mice; plate 4, mouse serum 10^-2, coat 5 μg MBPC.3/ml): 1233 and 1336 | optical density (OD) ratio 492/620 nm (×10^3) (C57/BL6 black mice; plate 4, mouse serum 10^-2, coat 10 μg MBPC.3/ml): 1454 and 1340 | optical density (OD) ratio 492/620 nm (×10^3) (C57/BL6 black mice; plate 4, mouse serum 10^-3, coat 0.5 μg MBPC.3/ml): 90 and 95 | optical density (OD) ratio 492/620 nm (×10^3) (C57/BL6 black mice; plate 4, mouse serum 10^-3, coat 1 μg MBPC.3/ml): 83 and 88 | optical density (OD) ratio 492/620 nm (×10^3) (C57/BL6 black mice; plate 4, mouse serum 10^-3, coat 5 μg MBPC.3/ml): 299 and 297 | optical density (OD) ratio 492/620 nm (×10^3) (C57/BL6 black mice; plate 4, mouse serum 10^-3, coat 10 μg MBPC.3/ml): 334 and 318 | optical density (OD) ratio 492/620 nm (×10^3) (C57/BL6 black mice; plate 4, mouse serum 10^-4, coat 0.5 μg MBPC.3/ml): 28 | optical density (OD) ratio 492/620 nm (×10^3) (C57/BL6 black mice; plate 4, mouse serum 10^-4, coat 1 μg MBPC.3/ml): 27 and 21 | optical density (OD) ratio 492/620 nm (×10^3) (C57/BL6 black mice; plate 4, mouse serum 10^-4, coat 5 μg MBPC.3/ml): 124 and 103 | optical density (OD) ratio 492/620 nm (×10^3) (C57/BL6 black mice; plate 4, mouse serum 10^-4, coat 10 μg MBPC.3/ml): 133 and 113 | toxicity to cells (MTT assay) (CEM or C8166 cells): not toxic
